Measured values as given in the supplement of paper PMC12855868.

B1: library; numbered along this chain (parent)
chain: MAAAGGARLLRAASAVLGGPAGRWLHHAGSRAGSSGLLRNRGPGGSAEASRSLSVSARARSSSEDKITVHFINRDGETLTTKGKVGDSLLDVVVENNLDIDGFGACEGTLACSTCHLIFEDHIYEKLDAITDEENDMLDLAYGLTDRSRLGCQICLTKSMDNMTVRVPETVADARQSIDVGKTS

Variants of: B1
Test: scaled log2 fold change in cell abundance, elesclomol vs control (0 = silent mean, 1 = nonsense mean) (scaled log2 ratio); higher = higher viability under elesclomol (loss of FDX1 cuproptosis function)
Details: glucose 10 mM
[1] = with ABC1 FDX1 KO, elesclomol 5 nM, 14 days
[2] = with HEK293T FDX1 KO, elesclomol 40 nM, 11 days
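Further: variant abundance is its share of total variant reads in each endpoint sample, from next-generation sequencing of the integrated ORF PCR-amplified out of genomic DNA.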

Variant | scaled log2 fold change [1] | scaled log2 fold change [2]
G151S | 0.0704 | -0.359
G151F | 1.04 | 1.32
G151D | 1.22 | 1.19
G151R | 1.11 | 0.946
G151P | 1.03 | 1.12
G151I | 1.07 | 0.797
G151C | 0.338 | -0.416
G151M | 1.01 | 1.15
G151E | 1.06 | 1.01
G151W | 1.06 | 1.38
G151H | 1.27 | 1.31
G151T | 0.645 | 0.96
G151V | 0.707 | -0.147
G151Q | 1.11 | 1.05
G151L | 1 | 0.743
G151A | 0.241 | 0.25
G151K | 1.04 | 0.728
G151Y | 1.15 | 1.08
G151N | 1.12 | 1.08
Q153N | -0.0628 | 0.314
Q153F | 0.595 | 0.361
Q153H | 0.41 | -0.0151
Q153L | 0.241 | -0.00657
Q153P | 0.884 | 0.923

Variant | scaled log2 fold change [1] | scaled log2 fold change [2]
Q153G | 0.48 | -0.652
Q153S | 0.243 | 0.372
Q153D | 0.674 | 0.615
Q153V | -0.0289 | 0.299
Q153T | 0.212 | -0.179
Q153A | 0.0247 | -0.209
Q153Y | 0.621 | 0.0427
Q153I | 0.0471 | -0.458
Q153M | -0.153 | -0.595
Q153C | -0.163 | -0.668
Q153W | 0.543 | 0.414
Q153E | 0.283 | 1.2
Q153R | -0.0672 | 1.14
Q153K | 0.016 | 0.139
S148D | 0.488 | 0.491
S148A | -0.395 | 0.0871
S148V | 0.0179 | 0.35
S148N | 0.122 | 0.397
S148F | 0.404 | 0.537
S148M | 0.0932 | 0.216
S148L | 0.386 | 0.434
S148Q | 0.313 | 0.39
S148P | 0.532 | 0.268
S148G | -0.0749 | -0.519

Variant | scaled log2 fold change [1] | scaled log2 fold change [2]
S148C | 0.0537 | 0.319
S148R | 0.331 | 0.333
S148K | 0.496 | -0.0219
S148I | 0.277 | 1.81
S148Y | 0.363 | -0.279
S148W | 0.632 | 0.172
S148T | 0.485 | 0.124
S148H | 0.322 | -0.35
S148E | 0.489 | 1.23
L156A | 0.194 | -1
L156C | 0.353 | 0.332
L150D | 1.09 | 0.982
L150Y | 0.721 | 0.392
L150K | 1.24 | 1.51
L150P | 1.09 | 0.82
L150E | 0.981 | 1.27
L150G | 0.757 | 0.513
L150F | 0.244 | -0.211
L150T | 0.595 | -0.16
L150M | -0.0616 | -0.103
L150W | 1.06 | 1.11
L150H | 0.563 | -0.201
L150C | -0.0973 | 0.196
L150S | 0.479 | 0.331

Variant | scaled log2 fold change [1] | scaled log2 fold change [2]
L150R | 1.05 | 0.41
L150N | 0.899 | 0.249
L150Q | 0.537 | 0.364
L150A | 0.335 | 0.397
L150V | 0.447 | -0.147
L150I | 0.2 | -0.337
T145F | -0.258 | -0.0341
T145Y | 0.224 | 0.0425
T145I | 0.244 | -0.228
T145G | 0.132 | 1.06
T145H | -0.157 | -0.272
T145E | -0.0343 | -0.344
T145C | -0.124 | -0.351
T145A | -0.6 | 0.187
T145N | 0.291 | -0.855
T145K | -0.0518 | -0.472
T145D | -0.00306 | -0.25
T145R | 0.0604 | -0.726
T145S | 0.00135 | –
T145P | 0.209 | -0.123
T145V | 0.027 | -0.443
T145Q | 0.226 | -1.28
T145M | 0.318 | -0.375
T145W | 0.478 | -0.147

Variant | scaled log2 fold change [1] | scaled log2 fold change [2]
T145L | 0.169 | 0.152
G143Y | 0.0128 | 0.695
G143W | -0.202 | -0.602
G143V | 0.0102 | -0.395
C152R | 1.08 | 1.5
C152Y | 1.15 | 1.64
C152V | 1.23 | 1.12
C152S | 1.17 | 1.18
C152L | 1.14 | 1.41
C152G | 1.06 | 1.28
C152W | 1.13 | 1.28
C152H | 1.12 | 0.972
C152A | 1.22 | 1.33
C152D | 1.1 | 1.19
C152T | 1.06 | 1.22
C152I | 1.12 | 1.09
C152P | 1.08 | 1.13
C152E | 1.03 | 1.1
C152F | 1.1 | 2.08
C152K | 1.05 | 0.942
C152N | 1 | 2.21
C152Q | 1.01 | 1.18
C152M | 1.16 | 0.861
D146C | 0.0801 | 0.758

Variant | scaled log2 fold change [1] | scaled log2 fold change [2]
D146L | 0.0782 | -0.302
D146V | -0.227 | -0.76
D146P | -0.219 | 0.177
D146A | 0.0826 | -0.539
D146Y | 0.1 | 0.0545
D146N | -0.093 | 0.538
D146T | 0.301 | -0.841
D146S | -0.00471 | 0.0302
D146R | -0.0353 | –
D146I | -0.109 | 0.0633
D146W | 0.114 | 0.978
D146G | -0.311 | 0.974
D146M | -0.332 | –
D146E | 0.138 | 0.321
D146Q | -0.0405 | -0.462
D146K | 0.0568 | -0.151
D146H | -0.228 | -0.639
D146F | -0.0311 | 0.866
R149A | 0.375 | 0.982
R149C | 0.906 | 1.99
R149M | 0.689 | 0.499
R149I | 0.876 | 0.53
R149L | 0.679 | 0.937
R149W | 1.07 | 1.1

Variant | scaled log2 fold change [1] | scaled log2 fold change [2]
R149S | 0.96 | 0.508
R149E | 1.13 | 1.11
R149H | 0.625 | 0.597
R149T | 1.01 | 0.998
R149Y | 0.871 | 0.839
R149Q | 0.899 | 1.02
R149P | 1.05 | 0.985
R149N | 1 | 1.05
R149F | 0.872 | 1.08
R149G | 0.658 | 0.436
R149D | 1.08 | 0.943
R149V | 0.231 | 0.529
R149K | 0.66 | -0.00324
R147P | 0.35 | -0.0221
R147D | 0.339 | 0.314
R147F | 0.104 | -0.384
R147I | 0.215 | -0.172
R147S | -0.721 | -0.596
R147C | -0.148 | 0.356
R147Q | 0.0113 | -0.0201
R147Y | 0.159 | 0.243
R147V | 0.177 | 0.544
R147N | 0.171 | 0.904
R147A | 0.283 | –

Variant | scaled log2 fold change [1] | scaled log2 fold change [2]
R147W | 0.275 | -0.126
R147M | 0.167 | -0.232
R147T | -0.344 | -0.0355
R147H | -0.0226 | -0.215
R147G | -0.409 | 0.00185
R147E | 0.159 | -0.255
R147K | -0.354 | -0.267
R147L | -1.37 | -0.851
L144P | 0.386 | 0.307
L144V | -0.402 | -0.057
L144D | 0.171 | -0.877
L144H | -0.0895 | -0.335
L144A | 0.157 | -0.304
L144T | 0.135 | -0.511
L144F | -0.293 | 1.23
L144I | 0.399 | -0.124
L144M | 0.249 | -0.887
L144G | -0.079 | -0.323
L144N | 0.342 | -0.655
L144E | 0.116 | 0.0837
L144W | -0.112 | -0.217
L144Y | -1.21 | -0.239
L144S | -0.409 | 0.564
L144Q | 0.137 | -1.45

Variant | scaled log2 fold change [1] | scaled log2 fold change [2]
L144C | 0.106 | -0.265
L144K | 0.175 | -0.503
L144R | 0.343 | 0.505
C155V | -0.17 | -0.185
C155G | -0.0608 | -0.601
C155I | 0.0211 | -0.117
C155H | -1.03 | -0.48
C155F | -0.0473 | -0.0932
C155R | -0.248 | -1.26
C155Y | -0.378 | -0.939
C155A | -0.331 | -0.584
C155E | -0.828 | -0.236
C155D | 0.24 | -1.76
C155S | 0.114 | -0.635
C155P | 0.0631 | 0.21
C155W | -0.0475 | 0.246
C155Q | 0.507 | –
C155K | -0.165 | 6.73e-05
C155N | -0.0685 | –
C155M | 0.338 | 0.969
C155T | -0.251 | -0.435
C155L | 0.0756 | -0.359
I154M | 0.363 | 0.583
I154R | 1.01 | 0.787

Variant | scaled log2 fold change [1] | scaled log2 fold change [2]
I154W | 0.968 | 0.877
I154E | 1.05 | 0.819
I154C | -0.101 | 0.0571
I154F | 0.839 | 0.781
I154K | 0.995 | 0.727
I154Q | 0.399 | 0.268
I154Y | 0.82 | 0.121
I154H | 0.392 | 0.163
I154T | -0.043 | -0.257
I154G | 1.1 | 1.27
I154N | 0.748 | 0.148
I154P | 1.04 | 0.814
I154S | 0.481 | 0.0924
I154L | 0.117 | 0.0996
I154V | -0.0239 | -1.6
I154A | 0.161 | 0.851
I154D | 1.18 | 1.22
